Laboratory results published in the supplement of paper PMC11780869.

Test system: Bacillus subtilis
Assay: cleaved RNA product abundance (RNA/gDNA barcode ratio) relative to median wild-type variant (ratio to wild type); higher = more accumulation of the downstream cleavage product
In short: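 Reporter mRNAs (truncated aprE or tetM) carrying barcoded, mutagenized RNase Y cleavage-site windows were made from oligos with a 9% error rate and integrated into the B. subtilis chromosome. Cultures grew in LB at 37°C from OD600 0.0003 to 0.3. Cleaved RNA was gel-selected, reverse transcribed and barcode-sequenced alongside genomic DNA barcodes, with UMI collapsing. Cleaved product abundance is the RNA:gDNA barcode ratio per variant, scaled to the median wild-type variant.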

[1] = experiment (reporter, strain, medium): exp 8a: truncated aprE reporter, strain BJT201 with 2% xylose (RNase J1 expressed), cleavage site: glnRA (positions -5 to +31 mutated)
[2] = experiment (reporter, strain, medium): exp 2b: truncated aprE reporter, strain BJT200, cleavage site: cggR-gapA (positions -7 to +36 mutated)
[3] = experiment (reporter, strain, medium): exp 4a: truncated aprE reporter, strain BJT201 with 2% xylose (RNase J1 expressed), cleavage site: cggR-gapA (positions -7 to +36 mutated)

Row | Sequence | cleaved RNA product abundance [1] | cleaved RNA product abundance [3] | other results
1 | CGACATGTCCCGCTTCTTTCATTAATCCGTTAGTAACTGTTTTGCTATATACATTTACATTTTAAGAGGAGGAAT | 0.433 |  | 
2 | ACAGACGAAGGAGCCGCAAAGATGTTATTACGGGATGAATAATCCCTCAATATAAATATCTCTCACTTATTTAAA |  | 0.401 | cleaved RNA product abundance [2]: 0.369
3 | ACAGACGAAGGAGCCGCAAAGAAGTTATTAAGGGATAAATAATCCCTCAAAATAAATATCTCTCACTTATTTAAA |  | 0.241 | cleaved RNA product abundance [2]: 0.293
4 | ACAGACGAAGGAGCCGCAAAGAAGTTATTAAGGCATGAATAATCCCTCAACATAAATATCTCTCACTTATTTAAA |  | 0.112 | cleaved RNA product abundance [2]: 0.119
5 | CGACATGTCCCGCTTCTTTCATTAATCCATTAGCAACTGATTTGCTATATACATTTACCTTTTAAGAGGAGGAAT | 0.89 |  | 
6 | ACAGACGAAGGAGCCGCAAAGAAGTTATTAAGGGATGAATAATCCCTGAATATAAATAGCTCTCACTTATTTAAA |  | 0.256 | 
7 | ACAGACGAAGGAGCCGCAAAGAAGCTATTAAGGGATGAAAAATCCCTCAATATAAATATCTCTCACTTATTTAAA |  | 0.491 | cleaved RNA product abundance [2]: 0.391
8 | CGACATGTCCCGCTTCTTTCATTAATCTTTTAGCAACTGTTTTACTATATACATTTACCTTTTAAGAGGAGGAAT | 0.94 |  | 
9 | ACAGACGAAGGAGCCGCAAAGAACTTAATAAGGGATGAATAATCCCTCAATATAAATATCTCTCACTTATTTAAA |  | 0.167 | 
10 | CGACATGTCCCGCTTCTTTCATTAATCCGTTAGCAACTGTGTTTCTATATACATTTAACTTTTAAGAGGAGGAAT | 0.453 |  | 
11 | CGACATGTCCCGCTTCTTTCATTAATCCGTTACCAACTGTTTTGCTATATACATTTACCTTTTAAGAGGAGGAAT | 0.255 |  | 
12 | ACAGACGAAGGAGCCGCAAAGAAGTTATTAAAGGATGAATAATCCCTCATTATAAATATCTCTCACTTATTTAAA |  | 0.245 | 
13 | ACAGACGAAGGAGCCGCAAAGAAGTTATTAAGGGATGAATAATCACTAAATATAAATATCTCTCACTTATTTAAA |  | 0.142 | 
14 | CGACATGTCCCGCTTCTTTCATTAATCCGTTAGAAACTGTTTTGCTATATACATTAACCTTTTAAGAGGAGGAAT | 0.374 |  | 
15 | ACAGACGAAGGAGCCGCAAAGAAGTTATTAAGGGATGAATAATCCCTCACTATAAATATCTCTCACTTATTTAAA |  | 0.277 | cleaved RNA product abundance [2]: 0.215; cleaved RNA product abundance (experiment (reporter, strain, medium): exp 6: tetM reporter, strain 168, cleavage site: cggR-gapA (positions -7 to +36 mutated)): 0.208
16 | ACAGACGAAGGAGCCGCAAAGAAGTTAATAAGGGATGAATCATCCCTCAATATAAATATCTCTCACTTATTTAAA |  | 0.314 | cleaved RNA product abundance [2]: 0.188
17 | ACAGACGAAGGAGCCGCAAAGAAGTTATTACGGGATGAATAATCCCTCAATATAGATATCTCTCACTTATTTAAA |  | 0.351 | 
18 | CGACATGTCCCGCTTCTTTCATTAATACGTTAGCAACTGTTTTGCTATATACATTCACCTTTTAAGAGGAGGAAT | 0.695 |  | 
19 | ACAGACGAAGGAGCCGCAAAGATGTTATTAAGGGATGAATACTCCCTCAATATAAATATCTCTCACTTATTTAAA |  |  | cleaved RNA product abundance [2]: 0.648
20 | CGACATGTCCCGCTTCTTTCATTAATCCGTTAGCAACTGTTTTGCGATATACATTTATCTTTTAAGAGGAGGAAT | 0.552 |  | 
21 | CGACATGTCCCGCTTCTTTCATTAATCCGGTAGCAACTGTTTTGATATATACATTTACCTTTTAAGAGGAGGAAT | 0.316 |  | 
22 | CGACATGTCCCGCTTCTTTCATTACTCCGTTAGCAACTGTTTTGCTATATACACTTACCTTTTAAGAGGAGGAAT | 0.587 |  | 
23 | CGACATGTCCCGCTTCTTTCATTAATCCTTTAGCAACTGTTTTTCTATATACATTTACCTTTTAAGAGGAGGAAT | 0.478 |  | 
24 | ACAGACGAAGGAGCCGCAAAGAAGTTATTAAGGAATGAATAATCCCTCAATATACATATCTCTCACTTATTTAAA |  | 0.118 | 
25 | CGACATGTCCCGCTTCTTTCATTAATCCGTTAGCAACTGTTTTGCTATTTACATTTAACTTTTAAGAGGAGGAAT | 0.208 |  | 
26 | ACAGACGAAGGAGCCGCAAAGAAGTTATTAAGTGATGAATAATCCCTCAATATAAAAATCTCTCACTTATTTAAA |  | 0.124 | 
